Data published in article PMC12109719, “Synergistic Signal Amplification via Weak Value Amplification Effect and Sandwich Structure for Highly Sensitive and Specific Real-Time Detection of CA125”.

Legend:
human IgG (human) = assay: imaging weak measurement, aptamer-antibody sandwich; details: 25 ng/mL; CA125 antibody (CA125 gave 665.83 a.u.); 5'-NH2; PBS+ (10 mM PBS, 5 mM MgCl2) as reference channel; aptamer 2 uM immobilized on polydopamine-coated prism, 2% blocking solution; readout at 55 min; pH and …
human IgE (human) = assay: as above; details: 25 ng/mL; CA125 antibody (CA125 gave 665.83 a.u.); 5'-NH2; PBS+ (10 mM PBS, 5 mM MgCl2) as reference channel; aptamer 2 uM immobilized on polydopamine-coated prism, 2% blocking solution; readout at 55 min; pH and …
[1] = target: CA125 (carbohydrate antigen 125) (UniProt Q8WXI7 1-14451); assay: imaging weak measurement, aptamer-antibody sandwich; CA125 50 U/mL; CA125 antibody; PBS+ (10 mM PBS, 5 mM MgCl2) as reference channel; aptamer 2 uM immobilized on polydopamine-coated prism, 2% blocking solution; readout at 55 min; pH and temperature not stated; details: protein: commercial

## CTCACTACTATAGGGATAGGGAGACAAGAATAAACGCTCAA [CA125-1 aptamer]
Human IgG (human)
  binding signal: < 35 a.u.
Human IgE (human)
  binding signal: < 35 a.u.

B1: CA125-2 aptamer (ssDNA)
DNA: TTATCGTACGACAGTCATCCTACAC
modifications: 5'-NH2-C6
[1]
  binding signal: 695 a.u.

B2: CA125-3 aptamer (ssDNA)
DNA: TATCAATTACTTACCCTAGTGGTGTGATGTCGTATGGATG
modifications: 5'-NH2-C6
[1]
  binding signal: 647 a.u.

B3: CA125-1 aptamer (ssDNA)
DNA: CTCACTACTATAGGGATAGGGAGACAAGAATAAACGCTCAA
modifications: 5'-NH2
[1]
  binding signal: 735 a.u.
